Experimental data taken from doi:10.64898/2025.12.10.693372 (bioRxiv, 2025).

B1: ZL525 Fab (Fab, V domains shown)
V domain 1: QVQLVQSGAEVKKPGSSMKVSCQASGGTFSSHPISWIRQAPGQGLEWMGRIIPIAGMTDYGQKFQGRITITADTSTSTSYVELRGLRSQDTAFYYCAKDVGYSDYGSAYYFHTWGQGTLITVSS
V domain 2: QSVLTQPPSVSGAPGQRVTISCTGSNSNIGAGYDVHWYQQLPGTAPKLLIYRNNKRPSGVPDRFSGSKSDTSASLAITGLQAEDEAHYYCQSFDSSLGGSLFGGGTKLAVL
B2: C092 Fab (Fab, V domains shown)
VH: QVQLVQSGAEVKKPGSSVKVSCKASGGSFTNHFISWVRQAPGQGLEWMGRIIPILGTANYAQNFQGRVMMTADKSTSTAYMELSSLRSEDTAVYYCARDSGYSGYGSTYYMDVWGKGTTVTVSS
VL: QSVLTQPPSVSGAPGQRVTISCTGSNSNIGAGYDVHWYQQLPGAAPKLLIYGNNNRPSGVPDRFSGSKSDTSASLAITGLQVEDEADYYCQSYDSSLSDSVFGSGTKVTVL
B3: ZL58 Fab (Fab, V domains shown)
VH: QLELVQSGGGLVQPGGSLRLSCAASEIAVSRNYMNWVRQGPGKGLEWVSIIYPGGSTFYADSVKGRFTISTDDSKNTLYLQMDSLSTDDTALYYCARQGPNGRNDFWGQGTLVTVSS
VL: DIQMTQSPSSLSASAGERVTITCQASQDINMYLNWYQQKPGKAPKLLIYDASNLETGVPSRFSGSGSVTEFTFTISSLQPEDIGTYYCHQYDSFPPTFGGGTKVDLK
B4: R102-9 Fab (Fab, V domains shown)
VH: EVQLVESGGGLVQPGGSLRLSCAASGIIVSRNYMSWVRQAPGKRPEWVSLIYPGGSTFYADSVKGRFTISRDNSKNMLFLQMNSLRAEDTAVYYCARDLTIRGEASWGQGTLVTVSS
VL: EIVMTQSPATLSVSPGERATLSCRASQSFNSNLAWYQQKPGQAPRLLIYGASTRATGIPARFSGSGSGTEFTLTISSLQSEDFAVYYCQQYGDWPLWTFGQGTKVEIK

How the values were obtained:
[1] = biological target: T1, SARS-CoV-2 Omicron LP.8.1 spike (S-6P) (SARS-CoV-2 Omicron LP.8.1, S-GSAS/6P (furin cleavage site, residues 682–685) | F817P | A892P | A899P | …); test: cryo-EM structure; conditions: both partners purified
T1 construct: also called LP.8.1 S-6P; Omicron LP.8.1.1 spike (S-6P)

[2] = biological target: T2, SARS-CoV-2 Omicron JD.1.1 spike (S-6P) (SARS-CoV-2 Omicron JD.1.1, S-GSAS/6P (furin cleavage site, residues 682–685) | F817P | A892P | A899P | …); test: cryo-EM structure; conditions: both partners purified
T2 construct: also called JD.1.1 S-6P; Omicron JD.1.1 S-trimer (S-6P)

Row | Binder | stoichiometry N [1] [Fabs per S-trimer] | stoichiometry N [2] [Fabs per S-trimer]
1 | B1 | 3 | –
2 | B2 | – | 3
3 | B3 | 3 | –
4 | B4 | – | 3
